Data set [1] deals with MS2 coat protein. The data set is described as follows: apparent KD of MS2 coat protein, switch ON state; designed switch direction (-1 OFF switch, 1 ON switch): -1; higher = weaker reporter binding. To be noted: FMN input: 0 or 200 uM; Eterna round: R93 (includes R88 designs). The gist of the method: (§1)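 With or without constant ligand, designed RNA switches in 100 mM Tris-HCl pH 7.5, 80 mM KCl and 4 mM MgCl2 were titrated with SNAP-549-labelled MS2 coat protein. Concentrations went up in twofold steps from 0.7 or 1.5 nM to 3 µM. The switches had been transcribed on-chip from Illumina sequencing clusters, and apparent KD is the per-design median of normalised cluster binding-curve fits.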

Data set [2] deals with MS2 coat protein. The data set is described as follows: apparent KD of MS2 coat protein, switch OFF state (with FMN for OFF switches, without FMN for ON switches); designed switch direction (-1 OFF switch, 1 ON switch): -1; higher = weaker reporter binding. As to conditions: FMN input: 0 or 200 uM; Eterna round: R93 (includes R88 designs). The gist of the method: as §1
Data set [3] has as its system MS2 coat protein. The data set is described as follows: apparent KD of MS2 coat protein; higher = weaker reporter binding. To be noted: Eterna round: R107. The gist of the method: as §1
Where [4] appears, read: input ligand: theophylline 20 uM.
The mark [5] stands for this setting: input ligand: theophylline 2 mM.
Setting [6] is: input ligand: tryptophan 2.4 mM.

Results on 36 sequences are retold here after the supplement of paper PMC9170038.

With “AAAAAACAUGAGGAUCACCCAUGUAAGGAUAUGCGAUGGAAAAUAAAAAUAAAACAUAGCAGAAGGUACACCAA [Amethyst 82]”, the “apparent KD of MS2 coat protein” value in the data set on MS2 coat protein [1] turned out to be 29.4 nM; with MS2 coat protein [2], 28.2 nM.
Regarding “AAAAAACAUGAGGAUCACCCAUGUAAGGAUAUGCUCAAGCGAAAAAGCACAAAAAAGAGCAGAAGGUACAAAAA [66%, Wbt, 41]”, the results for the “apparent KD of MS2 coat protein” value with MS2 coat protein [1] and with MS2 coat protein [2] were 22.6 nM and 31 nM, respectively.
In the case of “AAAAAACAUGAGGAUCACCCAUGUCAGGAUAUACAAAAAUAAAUAAAAAUAAAAUAAAGUAGAAGGGACAAAAA [May 9]”, the entries for the “apparent KD of MS2 coat protein” value in the data set on MS2 coat protein [1] and in the data set with MS2 coat protein [2] were 28.9 nM and 36.9 nM, respectively.
Turning to “AAAAAACAUGAGGAUCACCCAUGUCAGGAUAUGCUCAGCAAAAAAAAAAAAAAGAACGGUAGAAGGGACAGAAA [Bilbo Confounded 22 - Jieux - Exclusion 1]”, the “apparent KD of MS2 coat protein” value was 56.1 nM in the data set with MS2 coat protein [1] and 50.7 nM in the data set on MS2 coat protein [2].
For the sequence “AAAAAACAUGAGGAUCACCCAUGUGAGGAUAUAGGAAAAAAAAAAAAAAAAAAAAAAACUAGAAGGCACAAAAA [Gess I got it^^]”, the “apparent KD of MS2 coat protein” value in the data set with MS2 coat protein [1] was determined as 35.2 nM; in the data set on MS2 coat protein [2], 41.7 nM.
As for “AAAAAACAUGAGGAUCACCCAUGUGAGGAUAUCAAAUAAAGGCACAUGAGAAGGCAUAUGAGAAGGCACAUGAA [Meechl MS2 Ex1 2]”, in the data set on MS2 coat protein [1], the “apparent KD of MS2 coat protein” value worked out at 41.4 nM.
Consider “AAAAAACAUGAGGAUCACCCAUGUGAGGAUAUCGAGAAGAAGAAGAAGAAGAAGAGAACGAGAAGGCACAAAAA [Exclusion 1 - G's]”, for which the “apparent KD of MS2 coat protein” value stood at 25.8 nM with MS2 coat protein [1] and 29.9 nM with MS2 coat protein [2].
As to “AAAAAACAUGAGGAUCACCCAUGUGAGGAUAUGCAAAACCCAUAUAAAAAGGGAAAAAGCAGAAGGCGCAAAAA [Starry Exclusion 1.4 (wbt round 1 mod)]”, the “apparent KD of MS2 coat protein” value in the data set with MS2 coat protein [1] turned out to be 26.5 nM; with MS2 coat protein [2], 24.2 nM.
The corresponding values for “AAAAAACAUGAGGAUCACCCAUGUGAGGAUAUGCAAAACCCAUAUAAAAAGGGAAAAAGUAGAAGGCACAAAAA [wbt round 1 mod 10]” are 24.1 nM and 28.6 nM.
As for “AAAAAACAUGAGGAUCACCCAUGUGAGGAUAUGCAAAACUUAUAUAAAAAGGGAAAAAGUAGAAGGCACAAAAA [LROPPY Exclusion 1 - v09_water mod]”, the “apparent KD of MS2 coat protein” value in the data set with MS2 coat protein [1] was determined as 30.4 nM; in the data set on MS2 coat protein [2], 39.2 nM.
For “AAAAAACAUGAGGAUCACCCAUGUGAGGAUAUGCGAAAAAAAAAAUAAAAAAAAAAAAGCAGAAGGCACAAAAA [LROPPY Exclusion 1 - v05_deltaG=1.64]”, the “apparent KD of MS2 coat protein” value with MS2 coat protein [1] was 37.6 nM; in the data set on MS2 coat protein [2] it was 58.5 nM.
Turning to “AAAAAACAUGAGGAUCACCCAUGUGAGGAUAUGCGAAAAAAAAAAUAAAAAAAAAAAAGUAGAAGGCACACCAA [Mat - Exclusion 1 - Eli mod - D55]”, the “apparent KD of MS2 coat protein” value was determined as 41.9 nM with MS2 coat protein [1] and 44.1 nM in the data set on MS2 coat protein [2].
The corresponding values for “AAAAAACAUGAGGAUCACCCAUGUGAGGAUAUGGAAAAAUAAGGACAGUAAAGAUAAACCAGAAGGCACAAAUA [JR_Exc001_Sub1101]” are 26.4 nM and 24.1 nM.
Consider “AAAAAACAUGAGGAUCACCCAUGUGAGGAUAUGUGAAAAAAAAAAUAAAAAAAAAAAAGCAGAAGGUACAAAAA [LROPPY Exclusion 1 - v03_deltaG=3.94]”, for which the “apparent KD of MS2 coat protein” value in the data set with MS2 coat protein [1] came out at 43.7 nM; with MS2 coat protein [2], 39.9 nM.
Regarding “AAAAACUGAGGAUAUACAUGAGGAUCACCCAUGUAAAAAAAAAAAAAGGGAAAAAAAAGUAGAAGGCAGAAAAA [Nebiriau II]”, the “apparent KD of MS2 coat protein” value with MS2 coat protein [1] stood at 26.1 nM; in the data set with MS2 coat protein [2], 41 nM.
Take “AAAAAGCGAGGAUAUACAUGAGGAUCACCCAUGUAAAAGGUCGCGGGAGGGAGGGAAGGUAGAAGGCGCAAAAA [Excls3-VI]”: the “apparent KD of MS2 coat protein” value was 15.4 nM in the data set on MS2 coat protein [1] and 14.1 nM in the data set on MS2 coat protein [2].
For “AAAAAGCGAGGAUAUACAUGAGGAUCACCCAUGUCAAACGGUAAGACCGCAGGAAACAGUAGAAGGCGCAAAAA [Exclusion3-03]”, the “apparent KD of MS2 coat protein” value is 58.3 nM with MS2 coat protein [1] and 91.1 nM in the data set with MS2 coat protein [2].
The corresponding values for “AAAAAGGCAGGAUAUACGAGUCAAAGAAAAGACAAAAGGAAACAUGAGGAUCACCCAUGUAGAAGGGCCAAAAA [Fiskers exclusion D2 62% 6]” are 28.2 nM and 16.7 nM.
For “AAAAAGGGAGGAUAUACAUGAGGAUCACCCAUGUAUCAGACGAAAAAGAGUCUGAAAAGUAGAAGGCCCAAAAA [65%, Moding Exclusion3-cac2, 6]”, the results for the “apparent KD of MS2 coat protein” value in the data set on MS2 coat protein [1] and in the data set on MS2 coat protein [2] were 15.5 nM and 20.8 nM, respectively.
The corresponding values for “AAAAAGGGAGGAUAUACAUGAGGAUCACCCAUGUGAAAGACGAAAAAGAGUCUAAAGGGUAGAAGGCCCAAAAA [65%, Moding Exclusion3-cac2, 10]” are 51.1 nM and 49.2 nM.
As for “AAAAAGUCAGGAUAUACAGAUAAAAAAACGAAAAAAAAUCUGUAGAAGGGACAUGAGGAUCACCCAUGUAAAAA [Ex 4 May 1]”, the “apparent KD of MS2 coat protein” value in the data set with MS2 coat protein [1] stood at 61.8 nM; in the data set on MS2 coat protein [2], 40.1 nM.
The corresponding values for “AAAAAGUGAGGAUAUACAUGAGGAUCACCCAUGUGAAAGUCGAAAAAAAAGACAAGAAGUAGAAGGCACAAAAA [Fiskers Exclusion 3 D2 variant]” are 24.3 nM and 29.3 nM.
“AAAAAGUGAGGAUAUGAAAAUAAAAAAAACAAACAAAUAAAUCAGAAGGCACAUGAGGAUCACCCAUGUAAAAA [JR_Exc004_Sub1202]”: the figures for the “apparent KD of MS2 coat protein” value in the data set on MS2 coat protein [1] and in the data set with MS2 coat protein [2] were 36.8 nM and 26.2 nM, respectively.
For “AAAAAGUGAGGAUAUGCAGUGUCCUGUAGACGCGAGCACUUGUAGAAGGCACAUGAGGAUCACCCAUGUUUAAA [EX4 Malc#28]”, the “apparent KD of MS2 coat protein” value in the data set with MS2 coat protein [1] amounted to 24 nM; in the data set on MS2 coat protein [2] it was 22.1 nM.
Regarding “AAAAAGUGAGGAUAUGGUAAAAAAAAAAAAAAAAAAAACCUCCAGAAGGCACAUGAGGAUCACCCAUGUCAAAA [Jolly's Folly 3 - Jieux - Exclusion 4]”, the “apparent KD of MS2 coat protein” value in the data set on MS2 coat protein [1] worked out at 44.7 nM; in the data set with MS2 coat protein [2], 19 nM.
The corresponding values for “AAAAAUGGAGGAUAUACAUGAGGAUCACCCAUGUGUGACUAUACUAAGCGCUCCUCAGGUAGAAGGCCAAAAAA [Gilly Gone Silly 16 - Jieux - Exclusion 3]” are 83.5 nM and 99.5 nM.
For “AAAACUGGAGGAUAUACAUGAGGAUCACCCAUGUGUGGAUGAGCUGUGUCGGCGUCAGGUAGAAGGCCACAAAA [Gilly Gone Silly 35 - Jieux - Exclusion 3]”, the “apparent KD of MS2 coat protein” value in the data set on MS2 coat protein [1] turned out to be 36.3 nM; in the data set with MS2 coat protein [2] it was 43.1 nM.
Take “AAAACUGGAGGAUAUACAUGAGGAUCACCCAUGUGUGGGUAUACUGUGUCGGCGUCAGGUAGAAGGCCAAAAAA [Gilly Gone Silly 29 - Jieux - Exclusion 3]”: the “apparent KD of MS2 coat protein” value with MS2 coat protein [1] is 146 nM; with MS2 coat protein [2] it was 151 nM.
The corresponding values for “AAAACUGGAGGAUAUACAUGAGGAUCACCCAUGUGUGGGUGGGCUGUGUCGGCGUCAGGUAGAAGGCCACAAAA [Gilly Gone Silly 33 - Jieux - Exclusion 3]” are 201 nM and 108 nM.
The corresponding values for “AAAAGGUGAGGAUAUAGGAAAAUAAAAUAAAAUAAAAUAAACUAGAAGGCACAUGAGGAUCACCCAUGUAAUAA [LROPPY Exclusion 4 - v03_deltaG=3.54 break up the As]” are 25.1 nM and 17 nM.
With “AAAAGGUGAGGAUAUAUGAAAAAAAAAAAAAAAAAAAAAAAAUAGAAGGCACAUGAGGAUCACCCAUGUAAAAA [LROPPY Exclusion 4 - v04_ on a whim]”, the “apparent KD of MS2 coat protein” value with MS2 coat protein [1] came to 36.9 nM; in the data set on MS2 coat protein [2], 27.2 nM.
As to “AAAAGUGGAGGAUAUACAUGAGGAUCACCCAUGUGUAAAAAUAAAUACACAAAAGAAAGUAGAAGGCCACAAAG [Mat - Exclusion 3 - Mayanna mod - D117]”, the “apparent KD of MS2 coat protein” value amounted to 32.2 nM with MS2 coat protein [1] and 128 nM in the data set on MS2 coat protein [2].
For “UUUUACAUGAGGAUCACCCAUGUACAUGGGCGAGGACCGGUACGGCCGCCACUCGUGGGACCCACGGGCCCGCUUAGUGGGUACA [LarryB_001]”, the “apparent KD of MS2 coat protein” value in the data set with MS2 coat protein [3] (input ligand: arginine 13.2 mM) worked out at 58.3 nM; with MS2 coat protein [3] (input ligand: none), 87.5 nM; in the data set on MS2 coat protein [3] (setting [4]), 168 nM; with MS2 coat protein [3] (setting [5]), 189 nM; with MS2 coat protein [3] (setting [6]) it was 57.4 nM.
Take “UUUUACGCAAGUAAUUCCCGGGAACCGGAUACCAGCUCCUCCAACAGCCCUUGGCAGCCGACCACAUGAGGAUCACCCAUGUUUC [theeternabot_exclusion_MS2_Theo_A_28]”: the “apparent KD of MS2 coat protein” value with MS2 coat protein [3] (input ligand: arginine 13.2 mM) is 12 nM; in the data set with MS2 coat protein [3] (setting [4]), 16.1 nM; with MS2 coat protein [3] (setting [6]) it was 12.7 nM.
Turning to “UUUUAGCAUCGAAGGAGCGCUGGUAGGUGACACAUGAGGAUCACCCAUGUGCUCCUUGCCGAGCAGGUAGGUCGCGAUGCUAUUU [SSAB NP+V+V2 #8]”, the “apparent KD of MS2 coat protein” value in the data set on MS2 coat protein [3] (input ligand: arginine 13.2 mM) is 31.4 nM; with MS2 coat protein [3] (input ligand: none), 52.6 nM; with MS2 coat protein [3] (setting [4]) it was 62.9 nM; in the data set on MS2 coat protein [3] (setting [5]), 73.3 nM; in the data set on MS2 coat protein [3] (setting [6]), 46.2 nM.
Regarding “UUUUUUAACUGAAGGAGCGUCACAUGAGGAUCACCCAUGUAUUAGAUGAGAAGGAUCUUGUGGCAGGUAGGUCGCAGAGGAAGGG [e-argB-V]”, the “apparent KD of MS2 coat protein” value with MS2 coat protein [3] (input ligand: arginine 13.2 mM) turned out to be 99.6 nM; with MS2 coat protein [3] (input ligand: none), 389 nM; with MS2 coat protein [3] (setting [4]) it was 187 nM; in the data set with MS2 coat protein [3] (setting [5]) it was 181 nM; in the data set on MS2 coat protein [3] (setting [6]), 136 nM.
